Measurements: PMC6007000 (Nature genetics, 2017)
Non-standard residues stand in square brackets, D forms with d. Residues, ends and D or L forms follow the SMILES beside them. No end group written: not given here. Lys(Me3) = C[N+](C)(C)CCCC[C@H](N)C(=O)O

Key:
[1] = target: BAF45c (residues 254–368), PHD1-2 region of DPF3 (Homo sapiens, UniProt Q92784); experiment: Isothermal titration calorimetry of H3 tail peptides with DPF3; type: binding
[2] = target: PHD1-2 region of human BAF45c (DPF3), residues 254–368 (human) (UniProt Q92784); experiment: ITC
Chain of PHD1-2 region of human BAF45c (DPF3), residues 254–368 (human) (Q92784 254-368): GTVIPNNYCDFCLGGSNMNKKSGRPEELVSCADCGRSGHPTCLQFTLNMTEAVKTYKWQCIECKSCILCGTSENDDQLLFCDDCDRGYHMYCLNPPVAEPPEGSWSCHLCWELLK

Chain of BAF45c (residues 254–368), PHD1-2 region of DPF3 (Q92784 254-368): as above

| Compound | Kd [2] [µM] | Kd [1] [µM] |
| --- | --- | --- |
| ARTKQTRARKSTGGK(Ac)APRK [H3K4me0/K14ac] | – | 7.8 |
| CC(=O)NCCCC[C@H](NC(=O)CNC(=O)CNC(=O)[C@@H](NC(=O)[C@H](CO)NC(=O)[C@H](CCCCN)NC(=O)[C@H](CCCNC(=N)N)NC(=O)[C@H](C)NC(=O)[C@H](CCCNC(=N)N)NC(=O)[C@@H](NC(=O)[C@H](CCC(N)=O)NC(=O)[C@H](CCCC[N+](C)(C)C)NC(=O)[C@@H](NC(=O)[C@H](CCCNC(=N)N)NC(=O)[C@H](C)N)[C@@H](C)O)[C@@H](C)O)[C@@H](C)O)C(=O)N[C@@H](C)C(=O)N1CCC[C@H]1C(=O)N[C@@H](CCCNC(=N)N)C(=O)N[C@@H](CCCCN)C(=O)O [H3K4me3/K14ac] (H-ART[Lys(Me3)]QTRARKSTGGK(Ac)APRK-OH) | – | 115 |
| H3K4me1K14Ac peptide (H3 tail, H3K4me1 and H3K14ac) | 20 | – |

The next lines start with results.

| Kd [2] [µM] | Compound | Kd [1] [µM] |
| --- | --- | --- |
| 7.8 | H3K14Ac peptide (H3 tail, H3K4me0 and H3K14ac) | – |
| 115 | H3K4me3K14Ac peptide (H3 tail, H3K4me3 and H3K14ac) | – |
